Results: PMC7347513 (Cancer Immunology, Immunotherapy : CII, 2020)

These binders were tested against T1, HLA A*0101 presenting HCMV pp65 peptide […] on cells (human HLA-A*01:01 and B2M; HCMV pp65 …, strain) (assay: flow cytometry on cells). Settings: one partner purified.
T1 construct: copies: + +

Row | Binder | binding result
1 | biotinylated Fab A6 (Fab, V domains shown, source: E. coli TG1, biotinylated in vivo, purified (IMAC, Talon beads)) VH: EVQLVQSGAEVKKPGASVKVSCKASGYTFTSYYMHWVRQSPGQGLEWMGIINPSGGSTSYAQKFQGRVTMTRDTSTSTVYMELSSLRSEDTAVYYCARNGYCSSTSCYDAFDIWGQGTMVTVSS VL: QSALTQPASVSGSPGQSITISCTGTSSDVGGYNYVSWYQQHPGKAPKVLIYDVNQRISGVPDRFSGSKSGNTASLTISGLQAEDEADYYCCSYAGSSSWVFGGGTRLTVL | binds
2 | Fab A6 tetramer (Fab, V domains shown, copies: 4 + 4) VH: EVQLVQSGAEVKKPGASVKVSCKASGYTFTSYYMHWVRQSPGQGLEWMGIINPSGGSTSYAQKFQGRVTMTRDTSTSTVYMELSSLRSEDTAVYYCARNGYCSSTSCYDAFDIWGQGTMVTVSS VL: QSALTQPASVSGSPGQSITISCTGTSSDVGGYNYVSWYQQHPGKAPKVLIYDVNQRISGVPDRFSGSKSGNTASLTISGLQAEDEADYYCCSYAGSSSWVFGGGTRLTVL | binds
3 | biotinylated Fab F3 (Fab, V domains shown, source: E. coli TG1, biotinylated in vivo, purified (IMAC, Talon beads)) VH: QVQLVQSGAEVKKPGASVKVSCKASGYTFTSYYMHWVRQAPGQGLEWMGIINPSGGSTSYAQKFQGRVTMTRDTSTSTVYMELSSLRSEDTAVYYCASGITGAHDYWGQGTLVTVSS VL: QSVVTQPPSVSGAPGQRVTISCTGSSSNIGAGYDVHWYQQLPGTAPKLLIYENSIRPSGVPDRFSGSKSGTAASLAITGLQAEDEAEYYCQSYDNSLSGPNWVFGGGTKLTVL | binds
4 | Fab F3 tetramer (Fab, V domains shown, copies: 4 + 4) VH: QVQLVQSGAEVKKPGASVKVSCKASGYTFTSYYMHWVRQAPGQGLEWMGIINPSGGSTSYAQKFQGRVTMTRDTSTSTVYMELSSLRSEDTAVYYCASGITGAHDYWGQGTLVTVSS VL: QSVVTQPPSVSGAPGQRVTISCTGSSSNIGAGYDVHWYQQLPGTAPKLLIYENSIRPSGVPDRFSGSKSGTAASLAITGLQAEDEAEYYCQSYDNSLSGPNWVFGGGTKLTVL | binds

Each binder was assayed against T2, HLA A*0201 presenting HCMV pp65 peptide […] on cells (human HLA-A*02:01 and B2M; HCMV pp65 …, strain) (assay: flow cytometry on cells). Settings: one partner purified.
T2 construct: copies: + +

Row | Binder | binding result
5 | biotinylated Fab A11 (Fab, V domains shown, source: E. coli TG1, biotinylated in vivo, purified (IMAC, Talon beads)) VH: EVQLVQSGAEVKRPGASVKVSCKASGYTFTSYGIGWVRQAPGQGLEWMGWISAYSGNTNYAQNFQGRITMTTDTSTSTAYMELRSLRSDDTAVYYCARDFGKWDLPMYGMDVWGQGTTVTVSS VL: QSVLTQPPSVSVAPGGTARISCGGNNIGTKNVHWYQQKPGQAPVLVMYYNSDRPAGIPERFSGSNSGNTATLTITRVEPGDEADYYCQVWDDRRDHYVFGTGTEVTVL | binds
6 | biotinylated Fab A9 (Fab, V domains shown, source: E. coli TG1, biotinylated in vivo, purified (IMAC, Talon beads)) VH: EVQLVQSGAEVRNPGASVKVSCKASGYTFTSHGINWLRQAPGQGLEWMGWISAYSGNTNYAQNLQDRVSMTTDTSTSTAYMELRSLRSDDTAVYYCARDFGKWDLPMYGMDVWGQGTTVTVSS VL: QSVLTQPPSVSAAPGQRVTISCSGSSSDIGKSGKNYVAWYQQLPGMAPKLLIHDTIKRPSGIPDRFSASKSGTSATLDITGLQTGDEGDYYCGTWNNNLSAYVFGTGTTITVL | binds
7 | Fab C1 tetramer (Fab, V domains shown, copies: 4 + 4) VH: EVQLVQSGAEVKKPGSSVKVSCKASGGTFSSYAISWVRQAPGQGLEWMGGIIPIFGTANYAQKFQGRVTITADESTSTAYMELSSLRSEDTAVYYCARGLAAPDYFDYWGQGTLVTVSS VL: QSVVTQPPSVSGAPGQRVTISCTGSSSNIGAGYDVHWYQQLPGTAPKLLIYGNSNRPSGVPDRFSGSKSGTSASLAITGLQAEDEADYYCQSYDSSLSGPFYVFGTGTKVTVL | binds
8 | biotinylated Fab C1 (Fab, V domains shown, source: E. coli TG1, biotinylated in vivo, purified (IMAC, Talon beads)) VH: EVQLVQSGAEVKKPGSSVKVSCKASGGTFSSYAISWVRQAPGQGLEWMGGIIPIFGTANYAQKFQGRVTITADESTSTAYMELSSLRSEDTAVYYCARGLAAPDYFDYWGQGTLVTVSS VL: QSVVTQPPSVSGAPGQRVTISCTGSSSNIGAGYDVHWYQQLPGTAPKLLIYGNSNRPSGVPDRFSGSKSGTSASLAITGLQAEDEADYYCQSYDSSLSGPFYVFGTGTKVTVL | binds
